Data as given in patent publication US7094407B2, “Fusion peptide containing human type-1 collagen derived peptide, preparation thereof, and skin anti-aging cosmetic composition comprising the same” (LG Household & Health Care Ltd., priority 2002, dated 2006).

Legend:
Balb/c mice = experiment: Allergy test (LLNA, murine local lymph node assay); format: in vivo, mouse; settings: 0.5% and 1.0% solutions in ethanol, 50 μl to both ears for 3 days, [3H]-methylthymidine; versus control
Procedure: An experiment using ethanol as a carrier was selected for a safety test of the compound of Chemical Formula 1 when used as a cosmetic raw material [Reference: Kimber (1990): Identification of contact allergens using the murinelocal lymph node assay, J. Appl. Toxicol. 10(3); 173–180]. A control that uses cosmetic material for an anti-aging agent and the compound of Chemical Formula 1 were prepared in 0.5% and 1.0% solutions. 50 μl of the solution was applied to both ears of Balb/c mice for 3 days, and then the auricular lymph nodes were removed from the mice. The lymph nodes were pulverized to a monocell state, and radioisotope [3H]-methylthymidine was added thereto, after which a resulting material was cultured for 24 hours. Subsequently, amplification of cells (dpm, disintegrations per minute) was measured using a β-scintillation counter (Beckman LS 6000 TA, USA).

guinea pigs = experiment: Skin irritation patch test; format: in vivo, guinea pig; settings: O/W emulsion, 48 hours closed patch
Procedure: In order to test skin irritation of the compound of Chemical Formula 1, a patch test using guinea pigs was conducted [Reference: Draize, J. H. (1959): Dermal toxicity. Assoc. Food and Drug Officials, US. Appraisal of the safety of chemicals in Food, Drugs, and Cosmetics., pp 46–59, Texas State Dept. of Health, Austin, Tex. Federal Register (1973): Method of testing primary irritant substances 38(187): pp 1500–1541]. The compound represented by Chemical Formula 1 was prepared in an O/W emulsion of various concentrations. Fur on the back of the guinea pigs where the sample was to be coated was removed, and the area was allowed to adapt to the surroundings for 24 hours in order to minimize skin irritation that may be caused by the removal of the fur.
Next, a sample coating region was established (1.5 cm×1.5 cm), a sample and gauze were applied thereto, and the coated region was sealed with a thin paper of solid material in order to prevent loss, after which the sealing material was held firmly in place with an elastic bandage. The guinea pigs were maintained in this state for 48 hours then all the applied materials were removed. At two different time periods of 2 hours and 24 hours after removal of the closed patch (50 hours and 72 hours after patch application), the degree of irritation was determined and indicated by an irritation index (P11: primary cutaneous irritation index) and by an irritation degree scale.

human fibroblast = experiment: Collagen synthesis effects test; format: cell-based; settings: summary statement of test results
Procedure: In order to measure the usefulness of the Tat-human Type-collagen DP prepared in Example 1 as a skin anti-aging agent, it was tested by comparing the preparation with ascorbic acid, which is known to be a material having an exceptional collagen synthesis effect.
In this test, a human fibroblast of the same number was cultured on a 24-well plate for 24 hours, and the sample as a concentration of 10^−4 to 10^−7 was applied thereto. After 2 hours, proline introduced tridium was applied thereto and a resulting mixture was cultured for 24 hours. Next, an amount of collagen newly-synthesized and newly-secreted from fibroblast was measured a cpm (count per minute) of proline introduced tridium using a medium, and an amount of csp (collagenous sensitive protein) was calculated. A comparative measurement of the collagen synthesis effect was then performed (David F. W. and Wilson Harvey, Analytical Biochemistry (1979); 96, 220 224, Atsushi Hatamochi, Masashi Ono, Hiroaki Ueki, and Masayoshi Namba., J. Invest Dermatol. (1991) 96, 473 477).

V79-4 cells = experiment: Cytotoxicity MTT test; format: cell-based, Chinese hamster
Procedure: In order to identify the safety of the compound of Chemical Formula 1 when used as a cosmetic raw material, V79–4 cells (Chinese hamster, continuous cell line of lung tissue fibroblast) were cultured and an MTT test was conducted to test cytotoxicity for the compound [Reference: Mossaman T. (1983). Rapid colorimetric assay for cellular growth & survival: application to proliferation & cytotoxicity assays. Journal of Immunological Methods 65, 55–63).

[1] = Transdermal absorption (penetration into skin cells) test, Franz cell; format: in vitro ADME; settings: nude mouse back skin 1.7 cm^2, 24 hours, HPLC and LC mass
Procedure: Penetration of a compound, agent, etc. into skin cells is commonly referred to as transdermal absorption, and this will be the term used herein. The transdermal absorption test was conducted using the fusion peptide prepared in Example 1 (Reference: Lehman P A, Slattery J T, Franz T J. Percutaneous absorption of retinoids: Influence of vehicle, light exposure, and dose, J. Invest Dermatol., 91; 56–61. 1998).
Specifically, skin on the back of a female nude mouse 8 weeks of age was cut to a specific depth and to an area of 1.7 cm^2, and the fusion peptide was applied thereto. After 24 hours, the receptor solution and material absorbed in the skin in the back of the mouse were extracted with a transdermal absorption measuring instrument (Franz cell), and quantitatively analyzed using high performance liquid chromatography (HPLC) and liquid chromatography mass (LC mass) techniques. That is, these techniques were used to measure the amount of the compound of Chemical Formula 1 of the present invention that underwent transdermal absorption. […] Example 5: Allergy Test of a Tat-human Type-I collagen DP fusion peptide (LLNA)(SEQ ID NO: 10)

[2] = tested on: wrinkles on the outer corners of the eyes (crow's-feet); experiment: Anti-aging effects, O/W emulsion applied to crow's-feet of human subjects; format: in vivo; settings: 29 women in their thirties, 3 months, one time each day
Procedure: In order to examine anti-aging effects of the Tat-human Type-collagen DP prepared in Example 1, an O/W emulsion comprising the compound of Chemical Formula 1 of the present invention and a control were each applied to human subjects. In particular, the O/W emulsion and control were coated on wrinkles on the outer corners of the eyes (i.e., crow's-feet) of 29 women in their thirties. Application was performed for 3 months, one time each day. Visual observation of anti-aging effects, if any, was performed and ranked according to a scale of four possibilities—no improvement, little improvement, medium improvement, and significant improvement.

Sequence: KKKKKKKKKKTKS (Tat-human Type-I collagen DP fusion peptide)
- possibility of allergy induction (Balb/c mice): lower possibility of allergy induction than the control
- Irritation Degree (guinea pigs; Concentration 0.01 %): Minute irritation
- Irritation Index (PII) (guinea pigs; Concentration 0.01 %): 0.52
- Irritation Degree (guinea pigs; Concentration 0.1 %): Minute irritation
- Irritation Index (PII) (guinea pigs; Concentration 0.1 %): 0.53
- Irritation Degree (guinea pigs; Concentration 0.5 %): Minute irritation
- Irritation Index (PII) (guinea pigs; Concentration 0.5 %): 0.53
- synthesis of collagen and hyaluronic acid (human fibroblast): superior synthesis of collagen and hyaluronic acid
- cytotoxicity (MTT) (V79-4 cells; concentration of 0.01 or less): negligent level of toxicity
- cytotoxicity (MTT) (V79-4 cells; concentration of 0.1 (%, w.v) or more): very weak toxicity
- transdermal absorption capability [1]: superior transdermal absorption capability
- anti-aging effects on crow's-feet (visual observation) [2]: exhibits anti-aging effects on crow's-feet
